Where “and” joins values, the source holds several entries; their conditions need not be identical. Equal values may be shown once.
How the values were obtained:
[1] = target: T1, human OX40 expressed on cells (human, UniProt P43489 29-277); assay: flow cytometry, OX40-transfected HEK293F cells, gMFI (PE)
T1 construct: also called CD134; TNFRSF4
T1 sequence: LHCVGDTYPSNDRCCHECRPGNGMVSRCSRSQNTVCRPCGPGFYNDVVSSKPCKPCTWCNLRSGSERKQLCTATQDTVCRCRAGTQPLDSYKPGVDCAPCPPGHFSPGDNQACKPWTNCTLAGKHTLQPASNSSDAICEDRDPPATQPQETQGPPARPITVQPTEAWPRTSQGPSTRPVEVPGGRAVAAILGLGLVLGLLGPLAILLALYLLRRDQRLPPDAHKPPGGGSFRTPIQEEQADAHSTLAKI
Procedure: (§1) Transfected cells were seeded in 96-well plates (30,000 cells/well; ThermoFisher, cat. no. 163320) for sequential incubations, with washing steps in between using fluorescence-activated cell sorting (FACS) buffer 1 (phosphate buffered saline [PBS; Lonza, cat. no. BE17-517Q] supplemented with 0.1% bovine serum albumin [BSA; Roche, cat. no. 10735086001] and 0.02% sodium azide [NaN₃; Bio-World, cat. no. 41920044-3]) supplemented with 2 mM ethylenediaminetetraacetic acid (EDTA; Sigma-Aldrich, cat. no. 03690). […] Cells were then washed using EDTA-supplemented FACS buffer 1, resuspended in a 30 μL solution of viability marker ToPro-3 (Invitrogen, cat. no. T3605, diluted 1:10,000) in EDTA-supplemented FACS buffer 1, and subsequently analyzed on an iQue® 3 flow cytometer (Satorius). Data were analyzed using FlowJo software and were visualized using GraphPad Prism.

[2] = target: T2, cynomolgus monkey OX40 expressed on HEK293F cells (cynomolgus monkey (Macaca fascicularis), UniProt P43489 29-277 (human entry)); assay: as above
T2 construct: full-length entry
T2 chain: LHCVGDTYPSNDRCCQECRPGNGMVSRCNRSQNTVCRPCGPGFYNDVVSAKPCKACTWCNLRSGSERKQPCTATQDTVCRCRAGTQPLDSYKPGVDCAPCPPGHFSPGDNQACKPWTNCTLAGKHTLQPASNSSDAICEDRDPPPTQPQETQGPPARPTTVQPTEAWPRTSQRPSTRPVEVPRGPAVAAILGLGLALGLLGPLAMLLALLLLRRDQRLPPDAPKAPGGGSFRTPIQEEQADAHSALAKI
Procedure: as §1

[3] = target: T1, human OX40 expressed on cells; assay: cell-based or functional assay
[4] = target: T1, human OX40 expressed on cells; assay: flow cytometry, activated human CD8+ T cells, donor 3
Procedure: Healthy human donor PBMCs were purified essentially as described in Example 7. The cell concentration was adjusted to 2×10⁶ cells per mL (final concentration) in assay medium and plated in 6-well plates (Greiner, cat. no. 657160). PBMCs were stimulated with 0.3 μg/mL anti-CD3 ([…] Technologies, cat. no. 60011) and 0.5 μg/mL anti-CD28 antibodies (BioLegend, cat. no. 302934) and cultured for two days at 37° C., 5% CO₂. Next, the PBMCs were harvested, counted and brought to a concentration of 2×10⁶ cells per mL in FACS buffer 1 (DPBS with 2% heat-inactivated FBS and 2 mM ethylenediaminetetraacetic acid [EDTA]). […] After 60 min at RT, the cells were prepared for flow cytometric analyses. To this end, the cells were washed twice with 150 μL FACS buffer 1 and 30 μL/well cell-surface antibody mix (Table 9) in FACS buffer 1 containing antibody against human Fcγ antibody (Table 9) and fixable viability dye eFluor780 (1:1,500) was added. The staining procedures were carried out at 4° C. for 15-20 min protected from light. Stained cells were washed twice with 120-150 μL FACS buffer 1 (5 min, 460×g, RT) and resuspended in 60-100 μL FACS buffer 1 for direct flow cytometric analyses. Flow cytometric data were acquired on a FACSymphony A3 and analyzed with FlowJo software.

- EC50 (read off the curve) [1]: ~0.05 µg/mL
- EC50 (read off the curve) [2]: ~0.05 µg/mL
- Average EC50 CD4+ T-cell proliferation (17 donors) [3]: 0.013 µg/ml and 0.085 nM
- Average EC50 CD8+ T-cell proliferation (17 donors) [3]: 0.017 µg/ml and 0.115 nM
- EC50 CD4+ T-cell proliferation, donor 1 [3]: 0.009 µg/ml and 0.057 nM
- EC50 CD4+ T-cell proliferation, donor 2 [3]: 0.024 µg/ml and 0.159 nM
- EC50 CD4+ T-cell proliferation, donor 3 [3]: 0.012 µg/ml and 0.084 nM
- EC50 CD4+ T-cell proliferation, donor 4 [3]: 0.007 µg/ml and 0.048 nM
- EC50 CD4+ T-cell proliferation, donor 5 [3]: 0.008 µg/ml and 0.053 nM
- EC50 CD4+ T-cell proliferation, donor 6 [3]: 0.006 µg/ml and 0.038 nM
- EC50 CD4+ T-cell proliferation, donor 7 [3]: 0.019 µg/ml and 0.129 nM
- EC50 CD4+ T-cell proliferation, donor 8 [3]: 0.016 µg/ml and 0.107 nM
- EC50 CD4+ T-cell proliferation, donor 9 [3]: 0.007 µg/ml and 0.048 nM
- EC50 CD4+ T-cell proliferation, donor 10 [3]: 0.017 µg/ml and 0.111 nM
- EC50 CD4+ T-cell proliferation, donor 11 [3]: 0.01 µg/ml and 0.067 nM
- EC50 CD4+ T-cell proliferation, donor 12 [3]: 0.009 µg/ml and 0.06 nM
- EC50 CD4+ T-cell proliferation, donor 13 [3]: 0.019 µg/ml and 0.125 nM
- EC50 CD4+ T-cell proliferation, donor 14 [3]: 0.008 µg/ml and 0.052 nM
- EC50 CD4+ T-cell proliferation, donor 15 [3]: 0.02 µg/ml and 0.132 nM
- EC50 CD4+ T-cell proliferation, donor 16 [3]: 0.008 µg/ml and 0.053 nM
- EC50 CD4+ T-cell proliferation, donor 17 [3]: 0.018 µg/ml and 0.119 nM
- EC50 CD8+ T-cell proliferation, donor 1 [3]: 0.028 µg/ml and 0.19 nM
- EC50 CD8+ T-cell proliferation, donor 2 [3]: 0.029 µg/ml and 0.195 nM
- EC50 CD8+ T-cell proliferation, donor 3 [3]: 0.013 µg/ml and 0.087 nM
- EC50 CD8+ T-cell proliferation, donor 4 [3]: 0.007 µg/ml and 0.048 nM
- EC50 CD8+ T-cell proliferation, donor 5 [3]: 0.009 µg/ml and 0.058 nM
- EC50 CD8+ T-cell proliferation, donor 6 [3]: 0.008 µg/ml and 0.051 nM
- EC50 CD8+ T-cell proliferation, donor 7 [3]: 0.041 µg/ml and 0.273 nM
- EC50 CD8+ T-cell proliferation, donor 8 [3]: 0.005 µg/ml and 0.033 nM
- EC50 CD8+ T-cell proliferation, donor 9 [3]: 0.008 µg/ml and 0.052 nM
- EC50 CD8+ T-cell proliferation, donor 10 [3]: 0.016 µg/ml and 0.109 nM
- EC50 CD8+ T-cell proliferation, donor 11 [3]: 0.014 µg/ml and 0.095 nM
- EC50 CD8+ T-cell proliferation, donor 12 [3]: 0.009 µg/ml and 0.058 nM
- EC50 CD8+ T-cell proliferation, donor 13 [3]: 0.052 µg/ml and 0.346 nM
- EC50 CD8+ T-cell proliferation, donor 14 [3]: 0.008 µg/ml and 0.054 nM
- EC50 CD8+ T-cell proliferation, donor 15 [3]: 0.018 µg/ml and 0.117 nM
- EC50 CD8+ T-cell proliferation, donor 16 [3]: 0.011 µg/ml and 0.074 nM
- EC50 CD8+ T-cell proliferation, donor 17 [3]: 0.017 µg/ml and 0.116 nM
- EC50 [4]: 0.0217 µg/mL
B1: IgG1-CD134-003-HC6LC2-P329R-E345R (antibody)
heavy: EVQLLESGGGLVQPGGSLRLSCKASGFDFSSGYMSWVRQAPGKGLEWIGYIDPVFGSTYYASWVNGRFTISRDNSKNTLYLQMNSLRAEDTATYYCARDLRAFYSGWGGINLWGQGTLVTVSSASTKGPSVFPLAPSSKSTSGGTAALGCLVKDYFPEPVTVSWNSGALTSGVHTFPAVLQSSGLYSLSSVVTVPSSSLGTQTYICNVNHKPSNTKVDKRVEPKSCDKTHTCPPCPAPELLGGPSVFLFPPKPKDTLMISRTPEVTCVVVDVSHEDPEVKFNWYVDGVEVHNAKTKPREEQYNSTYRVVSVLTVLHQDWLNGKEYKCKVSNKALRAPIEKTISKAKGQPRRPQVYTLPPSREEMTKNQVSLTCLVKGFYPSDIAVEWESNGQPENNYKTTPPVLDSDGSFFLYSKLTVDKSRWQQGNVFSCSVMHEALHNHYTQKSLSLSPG
light: AAVLTQSPSSLSASVGDRVTITCQSSQIVVNNNFLSWYQQKPGKAPKLLIYDASNLASGVPDRFSGSGSGTDFTFTISSLQPEDIATYYCLGGYDDDAENAFGGGTKVEIKRTVAAPSVFIFPPSDEQLKSGTASVVCLLNNFYPREAKVQWKVDNALQSGNSQESVTEQDSKDSTYSLSSTLTLSKADYEKHKVYACEVTHQGLSSPVTKSFNRGEC
notes: humanized; human IgG1 with P329R and E345R (Eu numbering), kappa; also called IgG1-CD134-003-HC6LC2-RR

— patent US20240400703A1 (Genmab, published 2024)
